This is an account of results in patent US20110002945A1.

For test [1], the target named is fibrillar Aβ1-40 peptide (Homo sapiens (Human)) (UniProt P05067).
The target of test [2] is recombinant λ6-variable domain light chain Jto in fibrillar form. In words: EuLISA on plate-immobilized fibrils.
The target is the same in test [3]. The experiment in a line: binding to plate-immobilized fibrils.

Chain of fibrillar Aβ1-40 peptide (Homo sapiens (Human)) (P05067 672-711 limits assumed): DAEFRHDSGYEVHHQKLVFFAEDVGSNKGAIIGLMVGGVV

B1: antibody heavy chain F1 (protein)
heavy: AMDWTWSILFLVAAATGAHSQVQLVQSGAEVKKPGASVKVSCKASGYTFSSNGIIWVRQAPGQGLEWLGWISGYNGKTRYAQKVQGRVTITTDTSTSTAYMELRSLRSDDTAVYYCAREKTMVRGAISGYSDYWGQGTLVTVSSASTKGPSVFPLAPSSKSTSGGTAALGCLVKDYFPEPVTVSWNSGALTSGVHTFPAVLQSSGLYSLSSVVTVPSSSLGTQTYICNVNHKPSNTKVDKKRVEPKSCDKTHTCPPCPAPELLGGPSVFLFPPKPKDTLMISRTPEVTCVVVDVSHEDPEVKFNWYVDGVEVHNAKTKPREEQYNSTYRVVSVLTVLDHQDWLNGKEYKCKVSNKALPAPIEKTISKAKGQPREPQVYTLPPSREELMTKNQVSLTCLVKGFYPSDIAVEWESNGQPENNYKTTPPVLDSDGSFFLYSKLTVDKSRWQQGNVFSCSVMHEALHNHYTQKSLSLSPGK
B1 returned an Aβ fibril growth (recruitment of soluble biotinylated Aβ monomer to plate-bound Aβ1-40 fibrils, EuLISA) in test [1] of 1 µM. In test [2], the EC50 is 24 nM and the Max. Eu3+ was determined as 195 fmol. Further, the affinity in test [3] turned out to be 20 nM.
